This experiment has as its target Exoc7-sfGFP (mouse, endogenously tagged) (mouse (endogenous in normal murine mammary gland cells)) (UniProt O35250). Nature of the experiment: co-IP.

From publication PMC7537385 come the findings set out here.

UniProt O35250, sequence (O35250 whole entry): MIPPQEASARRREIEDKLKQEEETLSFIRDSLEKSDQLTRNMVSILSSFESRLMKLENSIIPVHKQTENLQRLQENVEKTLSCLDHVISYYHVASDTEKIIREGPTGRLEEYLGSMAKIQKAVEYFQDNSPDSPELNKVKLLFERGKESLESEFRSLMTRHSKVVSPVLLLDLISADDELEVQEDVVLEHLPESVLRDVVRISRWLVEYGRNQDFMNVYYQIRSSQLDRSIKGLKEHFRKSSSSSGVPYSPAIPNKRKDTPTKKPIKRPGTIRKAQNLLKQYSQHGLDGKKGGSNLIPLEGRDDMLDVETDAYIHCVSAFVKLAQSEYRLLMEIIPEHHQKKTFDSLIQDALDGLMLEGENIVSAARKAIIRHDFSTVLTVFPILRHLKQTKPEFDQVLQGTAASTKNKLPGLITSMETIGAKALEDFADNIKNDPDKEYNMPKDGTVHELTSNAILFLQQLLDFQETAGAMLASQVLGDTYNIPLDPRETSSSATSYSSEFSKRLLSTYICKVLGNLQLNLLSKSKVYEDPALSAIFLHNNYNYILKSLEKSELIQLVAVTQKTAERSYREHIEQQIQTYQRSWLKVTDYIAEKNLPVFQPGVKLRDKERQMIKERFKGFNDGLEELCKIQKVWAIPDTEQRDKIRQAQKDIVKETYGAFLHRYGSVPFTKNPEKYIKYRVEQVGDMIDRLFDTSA

Consider “Exoc2 truncated, ~48-kD N-terminal fragment (mouse) (domain or fragment)”, for which the percent coprecipitated with Exoc7-GFP is 53%.
